Data from patent publication US20260258115A1 (MAPP BIOPHARMACEUTICAL, published 2026).

B1: ADI-41371 (antibody, V domains shown)
VH: QVQLQESGPRLVKPSQTLSLTCTVSGGSITTGEHYWSWIRQSPGRGLEWIGYISYSGSTYYNPSLKSRVTISVDTSKTRISLNLRSVTAADSAVYYCARDQEDSDYIWGSSRVFDIWGQGTMVTVSS
VL: ETTLTQSPGTLSLSPGERATLSCRASQNVGNNYLAWYQQKPGQAPRVLIQDASTRATGIPDRFSGSGSGTDFTLTISRLEPEDFAVYHCQQYGSAPWTFGQGTKVEIK
notes: IgG1; also called Ab 668
B2: ADI-41372 (antibody, V domains shown)
VH: QVQLVQSGAEVKKPGSSVKVSCKASGGISSSYAISWVRQAPGQGLEWMGGIIPIFGTTNYAQKFQGRVTITADKSTSTVYMELSSLRSEDSAVYFCARAYCSGGTCYGGADYWGQGTLVTVSS
VL: SYELTQPPSVSVSPGQTARITCSGDVLPKQYAYWYQQKLGQAPLLVMYKDTERPSGIPERFSGSSSVTAVTLTISGVQAEDEADYYCQSADSTQELFGGGTKLTVL
notes: IgG1; also called Ab 669
B3: ADI-41373 (antibody, V domains shown)
VH: QVTLKESGGGLVKPGGSLRLSCAASGFTFSDYFMTWIRQAPGKGLEWVSYISSNSGYTKYAEDVKGRFSISRDNAKKTLFLQLNSLSAEDTAVYYCARVEFSSGDVPSLFDLWGQGTLVTVSS
VL: QSVLTQPPSVSGAPGQRVTISCTGSSSNIGAGYHVHWYQQLPGTAPKVLIHGNNNRPSGVPDRFSGSRSGTSASLAITGLQAEDEADYYCQSYDFSLSGWVFGGGTKLTVL
notes: IgG1; also called Ab 670
B4: ADI-41374 (antibody, V domains shown)
VH: QVQLVQSGAEVKKPGSSVKVSCKASGGTFSNHAIDWVRQAPGQGLEWMGRIIPMVGLATYTRKFQGRVTISVDKSTSTAYMELSSLISDDTAVYYCARRTPEMAWGYWGQGTTVTVSS
VL: DIVMTQTPSSLSASVGDRVTITCQASQDIRYYVNWYQQKPGKAPKLLIYDASTLETGVPSRFSGRGSGTDFTLIISSLQPEDIATYYCQQYGDLPTFGQGTRLEIK
notes: IgG1; also called Ab 671
B5: ADI-41375 (antibody, V domains shown)
VH: QVQLVQSGGGVVQPGRSLRLSCATSGFTFSDYAIHWVRQAPGKGLEWVAVISYDGSHKYYGDSVKGRFTISRDNSKNTLYLQMNSLRPEDTAVYYCARSRSGSYYSSAIDNWGQGTLVTVSS
VL: DIQMTQSPSSLSASVGDRVTIACRASQGISSALAWYRQRPGKAPELLIYDASTLESGVPSRFSGYGAGTDFTLTISSLQPEDFATYYCQQFNSYPSITFGQGTKVEIK
notes: IgG1
B6: ADI-41376 (antibody, V domains shown)
VH: QVQLQESGGGVVQPGRSLRLSCAASGFTFSSYAMHWVRQAPGKGLEWVAVISFDGTANKYYADSVKGRFAISRDNSKNTLYLQMNSLRAEDTAVYYCAKDDAIYSGGWVGDAFDLWGQGTMVTVSS
VL: EIVLTQSPATLSVSPGERATLSCRASQGVNSNLAWYQQKPGQAPRLLMYGASTRATGIPARFSGSGSETEFTLTISSLQSEDFAVYYCQQYNNWPRTFGQGTKVDIK
notes: IgG1; also called Ab 673
B7: ADI-41378 (antibody, V domains shown)
VH: EVQLVESGPGLVKPSGTLSLTCAVSGDSISSSNWWSWVRQPPGKGLEWIGEVSHSGNTDYNPSLKSRVTISVDKSKNQFSLKLSSVTAADTAVYYCARPSPCSGGSCYWFFDLWGRGTLVTVSS
VL: DIRLTQSPSSLSASVGDRVTITCRASQTINAYLNWYQQRPGKAPNLLIYAASSLQSGVPSRFSGSGSGTDFTLTISSLQPEDFATYYCQQSYKTAYTFGQGTKVEIK
notes: IgG1
B8: ADI-41381 (antibody, V domains shown)
VH: QVQLQESGPGLVKPSQTLSLTCTVSGDSISGGEHYWSWIRQPPGKGLEWIGSIYYSGTTYYNPSLKSRLTVSVDTFKNQFSLMLSYVTAADTAVYYCARDASPAYHDYIWGSCRYFDKWGQGTLVTVSS
VL: EIVLTQSPGTLSLSPGERATLSCRASQSVSSNYLAWYQQKPGQAPRILIHGASSRATGIPDRFSGSGSGTDFTLTVSRLEPEDFAVYYCQQYGSTPYTFGQGTKVEIK
notes: IgG1; also called Ab 678
B9: ADI-41384 (antibody, V domains shown)
VH: QVQLVQSGAEVKKPGSSVRVSCKASGGTFSRYAISWVRQAPGQGLEWMGGVIPRFDKTNYAQKFQGRVMITADKSTSTAYMELSSLRSDDTAVYYCAGDRLDTKITHTWYGFGDFWGQGTTVTVSS
VL: EIVLTQSPGTLSLSPGERATLSCRASQSVTSNFLAWYQQRPGQAPRLLIYGASVRAIDIPDRFSGSGSGTDFTLTISRLEPEDFAVYYCQQYGDPFRTFGQGTKVEIK
notes: IgG1; also called Ab 680
B10: ADI-41385 (antibody, V domains shown)
VH: EVQLVESGGGVVQPGRSLRLSCAASGFTFSSYGMHWVRQAPGKGLEWVAVIWYDGNNEKYADSVKGRFTISRDNSKNTLYLQMNSLRAEDTAVYYCARPTQKYSSSWYWEDSIDYWGQGTLVTVSS
VL: QSVLTQPPSVFGAPGQRVTISCTGSSSNIGAGYPVHWYQQLPGTAPKLLIYGNSNRPSGVPDRFSGSKSGTSASLAITGLQAEDEADYYCQSYDSSLSGGVVFGGGTKLTVL
notes: IgG1; also called Ab 681
B11: ADI-41389 (antibody, V domains shown)
VH: EVQLVESGGGVVQPGRSLRLSCAASGFTFSNYAIHWVRQAPGKGLEWVAAISYDGGNKFYADSVKGRFTISRDNSRNTLYLQMNSLRPEDTAVYYCARDRWELNYGIDVWGQGTTVTVSS
VL: SYELMQPPSVSVSPGQTARITCSGDALPKQYAYWYQQKPGQAPVLVIYKDSERPSGIPERFSGSTSGTTVTLTISGVQAEDEADYYCQSADSSSTFFYVFGTGTKLTVL
notes: IgG1; also called Ab 683
B12: ADI-41391 (antibody, V domains shown)
VH: EVQLLESGPGLVKPSETLSLTCTVSGGSISGYYWSWIRQPPGKGLEWIGYIYHSGGSTNYNPSLKSRVTISVDTSKNQFSLKVSSVTAADTAVYYCARLARVVTTFDFWGQGALVTVSS
VL: QPVLTQPASVSGSPGQSITISCTGTSSDVGGYNYVSWYQQKPGTAPKLMIFDVSNRPSGVSNRFSGSKSDNTASLTISGLQAEDEADYYCSSYTSSTNLVFGGGTKLTVL
notes: IgG1
B13: ADI-41392 (antibody, V domains shown)
VH: EVQLVESGGGVVQPGGSLRLSCAASGFEFRDYAMHWVRQAPGKGLEWVALISYDGSKIHYADSVQGRFSISRDNSKNSLYLQMNSLRSEDSAKYYCVQDHWLVPAFWGQGAQVTVSS
VL: QPVLTQPASVSGSPGQWITISCTGTSSDIGYYDYVSWYQQYPGKAPKLIIYEVSHRPSGVSNRFSGSKSGNTASLSISGLQAEDEADYYCSSYTTSNAGVFGTGTKLTVL
notes: IgG1
B14: ADI-41393 (antibody, V domains shown)
VH: QVQLVQSGAEVKKPGESLKISCKGSGYSFTSYWIGWVRQMPGKGLEWMGIIYPGDSDTRYSPSFQGQVTISADKSTSTAYLQWSSLKASDSAMYYCARSEFSSSFDFWGQGTLVTVSS
VL: NFMLTQPHSVSESPGKTVTISCTGSSGSIASYYVQWYQLRPGSAPTTVIYEDNQRLSGVPDRFSGSIDSSSNSASLTISGLKTEDEADYYCQSYRSGIPWVFGGGTKLTVL
notes: IgG1; also called Ab 687
B15: ADI-41403 (antibody, V domains shown)
VH: EVQLVESGGGLVKPGGSLRLSCAASGFTFGTYTMNWVRQAPGKGLEWVSSISSSSSHIYYADSVKGRFTISRDNARKALYLQMNSLRPEDTAVYFCARFLGDYGGDGNTYYYYYGMDVWGQGTTVTVSS
VL: EIVMTQSPLSLPVTPGEPASISCRSSQSLLHSNGKNYLDWYLQKPGQSPQLLIHLGSNRASGVPDRFSGSGSGTDFTLQISRVEAEDVGVYYCMQALQTPTFGGGTKLEIK
notes: IgG1
B16: ADI-41404 (antibody, V domains shown)
VH: QVQLVQSGAEVKKPGSSVKVSCKASGGTFSSYGISWVRQAPGQGLEWMGGIIPIFGTVSYAQKFRGRLTITAHEPTSTAYMDLSSLRSEDTAVYYCARINGRGWELSSLNYYYGMDVWGQGTTVTVSS
VL: EIVLTQSPGTLSLSPGERGTLSCRASQSVASSYLAWYQQKPGQAPRLLIYGATSRATGIPDRFSGSGSGTDFTLTISRLEPEDFAVYYCQQYGSSLFTFGGGTKVDIK
notes: IgG1; also called Ab 696
B17: ADI-41405 (antibody, V domains shown)
VH: EVQLLESGGGLVQPGGSLRLSCAASGFSFSIYSMNWVRQAPGKGLEWISYITSTGSPTYYADSVKGRFTISRDNAKNSLYLQMSSLRAEDTAVYYCVTYCSSSSCPAEFDYWGQGTLVTVSS
VL: EIVLTQSPATLSLSPGERATLSCRASQSVNSYLAWYQQKPGQAPRLLIYDASNRATGIPARFSGSGSGTDFTLTISSLEAEDFAVYYCQHRNNWPALTFGGGTKVEIK
notes: IgG1
B18: ADI-41407 (antibody, V domains shown)
VH: EVQLVESGGGLVQPGGSLRLSCAASGFTFSSNAMSWVRQAPGKGLEWVSYISGGSATKSYADSVKGRFTISRDNSKNTLYLQMKSLRAEDTAVYYCVGGSAYYSGFDYWGQGTLVTVSS
VL: DIVMTQSPSSLSASVGDRVTISCRASQDIRNYLAWYQQKPGKVPNLLIYAASTLESGVPSRFSGSGYGTDFTLTISGLQPEDVATYYCQKYDSAPPFTFGPGTKVDIK
notes: IgG1
B19: ADI-41414 (antibody, V domains shown)
VH: EVQLLESGGGLAQPGRSLKVSCAASGVTVTSTYMGWVRQAPGKGLQWVSVIYSDGTTYYADSVKGRFTISRDHYKNTLYLQMNSLRAEDTALYYCARGNRRTDFGYWGQGTLVTVSS
VL: EIVMTQSPSTLSASVGDRVTITCRASQTISNWLAWYQQKPGKAPKLLIYQASTLESGVPSRFSGSGSGTEFTLTISSLQPDDFATYYCQQYNTYYTFGPGTKVEIK
notes: IgG1

Biological target: RSV fusion glycoprotein (RSV F) on RSV-A2 virus (respiratory syncytial virus, UniProt P03420 26-574)
Assay: cell-based or functional assay

Binder | Neutralization IC50 (RSV subtype A) [µg/mL]
B1 | > 25
B2 | > 25
B3 | > 25
B4 | > 25
B5 | > 25
B6 | > 25
B7 | > 25
B8 | > 25
B9 | > 25
B10 | > 25
B11 | > 25
B12 | > 25
B13 | 0.18
B14 | > 25
B15 | > 25
B16 | > 25
B17 | > 25
B18 | > 25
B19 | > 25

Biological target: RSV prefusion F (preF), DS-Cav1 (respiratory syncytial virus, UniProt P03420 26-513)
Assay: BLI, IgG on sensor, 100 nM antigen

Binder | Kd [nM]
B1 | 2.96
B2 | 2.48
B3 | 3.71
B4 | 1.39
B5 | 2.96
B6 | 4.15
B7 | 2.98
B8 | 2.6
B9 | 3.45
B10 | 4.52
B11 | 2.58
B12 | 0.882
B13 | 0.329
B14 | 1.67
B15 | 3.04
B16 | 47.4
B17 | 2.72
B18 | 2.08
B19 | 2.7

Biological target: RSV postfusion F (postF), F deltaFP (respiratory syncytial virus, UniProt P03420 26-513)
Assay: BLI, IgG on sensor, 100 nM antigen

Binder | Kd [nM]
B1 | 0.543
B2 | 0.425
B3 | 1.18
B4 | 0.369
B5 | 1.02
B6 | 0.705
B7 | 0.739
B8 | 1.34
B9 | 0.563
B10 | 0.601
B11 | 0.513
B12 | 0.479
B13 | 0.359
B14 | 0.247
B15 | 0.841
B16 | 13.6
B17 | 0.458
B18 | 0.371
B19 | 1.1
